Substitutions are numbered along the chain they refer to.

To fix the notation:
B1: dgα5-β8 (dg-αQ5C/hCGβR8C) (ligand)
chain 1: not shown
chain 2: SKEPLRPCCRPINATLAVEKEGCPVCITVNTTICAGYCPTMTRVLQGVLPALPQVVCNYRDVRFESIRLPGCPRGVNPVVSYAVALSCQCALCRRSTTDCGGPKDHPLTCDDPRFQDSSSSKAPPPSLPSPSRLPGPSDTPILPQ
B2: dgα27-β44 (dg-αQ27C/hCGβV44C) (ligand)
chain 1: not shown
chain 2: B1 chain 2 with C8R, V44C
B3: dgα76-β44 (dg-αV76C/hCGβV44C) (ligand)
chain 1: not shown
chain 2: B1 chain 2 with C8R, V44C

This test concerns the target rat LH receptor (rat, UniProt P16235). In words: cell-based or functional assay.
Consider B1, for which the “Efficacy, cyclic AMP accumulation” value was 36%.
For B2 the value was 14%; for B3, 34%.
